Measurements as given in patent publication US20220017863A1 (H LEE MOFFITT CANCER CENTER AND RESEARCH INSTITUTE, published 2022).

T1: alanine, serine, cysteine-preferring transporter 2 (ASCT2) (mouse, UniProt P51912 1-553)
T1 construct: Endogenous protein in lysate; also called Glutamine transporter ASCT2; ACST2
T1 sequence (looked up): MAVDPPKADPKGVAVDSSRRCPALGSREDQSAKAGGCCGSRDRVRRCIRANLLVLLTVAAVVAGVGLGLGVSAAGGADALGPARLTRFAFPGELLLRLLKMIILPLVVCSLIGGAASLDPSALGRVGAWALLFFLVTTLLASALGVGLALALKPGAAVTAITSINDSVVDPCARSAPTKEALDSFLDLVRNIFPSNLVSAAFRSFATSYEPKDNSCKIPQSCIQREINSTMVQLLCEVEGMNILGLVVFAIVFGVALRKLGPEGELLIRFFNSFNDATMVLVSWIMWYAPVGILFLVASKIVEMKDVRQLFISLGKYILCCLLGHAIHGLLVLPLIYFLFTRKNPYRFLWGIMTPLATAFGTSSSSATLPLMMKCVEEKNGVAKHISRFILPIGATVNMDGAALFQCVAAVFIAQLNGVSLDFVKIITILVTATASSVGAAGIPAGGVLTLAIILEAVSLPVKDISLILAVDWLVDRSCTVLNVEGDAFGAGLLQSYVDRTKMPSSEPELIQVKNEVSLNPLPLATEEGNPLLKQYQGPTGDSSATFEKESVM

T2: Hexokinase 1 (HK1) (mouse, UniProt P17710-3 1-918, limits assumed)
T2 construct: Endogenous protein in lysate
T2 sequence (looked up): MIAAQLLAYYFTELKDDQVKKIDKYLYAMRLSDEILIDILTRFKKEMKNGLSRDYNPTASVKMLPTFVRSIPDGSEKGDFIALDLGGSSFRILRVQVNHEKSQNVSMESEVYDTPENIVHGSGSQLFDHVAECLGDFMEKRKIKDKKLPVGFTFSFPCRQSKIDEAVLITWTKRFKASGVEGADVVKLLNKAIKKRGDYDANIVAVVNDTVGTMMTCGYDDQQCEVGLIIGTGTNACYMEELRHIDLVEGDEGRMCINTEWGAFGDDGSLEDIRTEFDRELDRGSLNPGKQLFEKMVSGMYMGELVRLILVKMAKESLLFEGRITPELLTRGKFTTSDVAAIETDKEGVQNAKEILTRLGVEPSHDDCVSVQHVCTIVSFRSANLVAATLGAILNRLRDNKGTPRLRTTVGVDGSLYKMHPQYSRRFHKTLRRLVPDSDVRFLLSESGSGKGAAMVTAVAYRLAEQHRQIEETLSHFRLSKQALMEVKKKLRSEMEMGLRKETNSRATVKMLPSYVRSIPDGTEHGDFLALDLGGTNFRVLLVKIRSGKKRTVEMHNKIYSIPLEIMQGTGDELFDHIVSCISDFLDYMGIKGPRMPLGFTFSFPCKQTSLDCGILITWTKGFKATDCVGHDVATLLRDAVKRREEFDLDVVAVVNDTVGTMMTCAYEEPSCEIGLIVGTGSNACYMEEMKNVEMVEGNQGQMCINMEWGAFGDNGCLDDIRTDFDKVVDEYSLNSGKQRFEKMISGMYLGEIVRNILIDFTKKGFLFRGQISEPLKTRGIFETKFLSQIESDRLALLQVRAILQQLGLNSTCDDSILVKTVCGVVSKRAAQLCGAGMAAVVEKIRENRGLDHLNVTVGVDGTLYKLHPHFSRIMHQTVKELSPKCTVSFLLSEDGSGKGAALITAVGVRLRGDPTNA

T3: aconitase 2 (ACO2) (mouse, UniProt Q99KI0 28-780)
T3 sequence (looked up): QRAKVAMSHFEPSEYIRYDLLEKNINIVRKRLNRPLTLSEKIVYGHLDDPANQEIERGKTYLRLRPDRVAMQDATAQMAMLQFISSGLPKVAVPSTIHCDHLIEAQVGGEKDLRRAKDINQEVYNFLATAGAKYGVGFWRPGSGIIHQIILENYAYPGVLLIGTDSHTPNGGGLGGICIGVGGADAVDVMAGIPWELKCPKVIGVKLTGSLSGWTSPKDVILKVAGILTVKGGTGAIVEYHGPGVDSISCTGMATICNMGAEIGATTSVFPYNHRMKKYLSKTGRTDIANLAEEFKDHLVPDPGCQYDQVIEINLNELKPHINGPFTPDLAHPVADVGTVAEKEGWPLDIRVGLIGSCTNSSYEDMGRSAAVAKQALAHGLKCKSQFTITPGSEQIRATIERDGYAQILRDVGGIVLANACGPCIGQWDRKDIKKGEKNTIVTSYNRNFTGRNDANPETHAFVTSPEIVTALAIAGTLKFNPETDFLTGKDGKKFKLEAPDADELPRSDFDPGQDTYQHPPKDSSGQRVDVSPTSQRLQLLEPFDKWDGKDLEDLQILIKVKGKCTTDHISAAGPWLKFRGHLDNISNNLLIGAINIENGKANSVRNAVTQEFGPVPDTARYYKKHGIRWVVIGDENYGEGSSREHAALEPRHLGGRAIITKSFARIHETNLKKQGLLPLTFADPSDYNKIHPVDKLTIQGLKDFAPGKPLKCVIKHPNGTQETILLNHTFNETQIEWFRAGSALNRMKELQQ

T4: oxoglutarate dehydrogenase (OGDH) (mouse, UniProt Q60597 41-1023, limits assumed)
T4 construct: Endogenous protein in lysate
T4 sequence (looked up): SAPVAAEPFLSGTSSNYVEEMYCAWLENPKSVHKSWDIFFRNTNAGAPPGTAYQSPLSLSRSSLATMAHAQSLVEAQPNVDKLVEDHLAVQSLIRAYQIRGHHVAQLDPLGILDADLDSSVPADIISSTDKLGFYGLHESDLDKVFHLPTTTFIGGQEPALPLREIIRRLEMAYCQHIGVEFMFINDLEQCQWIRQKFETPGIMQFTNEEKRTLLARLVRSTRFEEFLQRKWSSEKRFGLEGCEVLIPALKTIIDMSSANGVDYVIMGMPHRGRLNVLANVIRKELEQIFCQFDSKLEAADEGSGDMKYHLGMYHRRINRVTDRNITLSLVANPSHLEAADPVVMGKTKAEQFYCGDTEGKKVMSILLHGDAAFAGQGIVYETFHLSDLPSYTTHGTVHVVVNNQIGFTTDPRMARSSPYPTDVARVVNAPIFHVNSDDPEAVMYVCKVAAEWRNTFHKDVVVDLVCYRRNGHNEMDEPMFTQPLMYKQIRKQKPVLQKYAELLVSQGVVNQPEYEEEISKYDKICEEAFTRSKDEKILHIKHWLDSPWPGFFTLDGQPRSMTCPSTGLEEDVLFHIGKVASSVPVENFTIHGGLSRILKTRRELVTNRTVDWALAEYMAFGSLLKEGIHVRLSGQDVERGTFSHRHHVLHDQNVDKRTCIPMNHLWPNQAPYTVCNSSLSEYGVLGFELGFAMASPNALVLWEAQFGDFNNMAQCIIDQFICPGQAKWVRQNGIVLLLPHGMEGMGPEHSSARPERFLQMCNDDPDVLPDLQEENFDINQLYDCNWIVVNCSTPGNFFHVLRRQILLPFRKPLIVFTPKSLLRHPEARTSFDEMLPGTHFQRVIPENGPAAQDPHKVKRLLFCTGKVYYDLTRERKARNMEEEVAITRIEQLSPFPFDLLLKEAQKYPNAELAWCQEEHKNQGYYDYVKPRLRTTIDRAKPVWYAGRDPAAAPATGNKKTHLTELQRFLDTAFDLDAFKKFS

T5: phosphoglycerate kinase 1 (PGK1) (mouse, UniProt P09411 2-417)
T5 sequence (looked up): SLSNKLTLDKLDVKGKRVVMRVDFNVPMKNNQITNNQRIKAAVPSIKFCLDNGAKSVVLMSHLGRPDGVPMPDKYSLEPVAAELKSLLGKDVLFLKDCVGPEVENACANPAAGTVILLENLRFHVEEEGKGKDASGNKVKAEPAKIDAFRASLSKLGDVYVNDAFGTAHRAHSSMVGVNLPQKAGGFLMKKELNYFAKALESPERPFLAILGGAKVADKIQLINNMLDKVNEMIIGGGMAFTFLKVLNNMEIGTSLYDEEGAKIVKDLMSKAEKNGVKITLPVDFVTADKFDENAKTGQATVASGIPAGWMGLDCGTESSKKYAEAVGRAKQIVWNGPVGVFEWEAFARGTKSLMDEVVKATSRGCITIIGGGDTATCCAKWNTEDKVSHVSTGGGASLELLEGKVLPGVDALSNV

T6: phosphofructokinase P (PFKP) (mouse, UniProt Q9WUA3 1-784)
T6 sequence (looked up): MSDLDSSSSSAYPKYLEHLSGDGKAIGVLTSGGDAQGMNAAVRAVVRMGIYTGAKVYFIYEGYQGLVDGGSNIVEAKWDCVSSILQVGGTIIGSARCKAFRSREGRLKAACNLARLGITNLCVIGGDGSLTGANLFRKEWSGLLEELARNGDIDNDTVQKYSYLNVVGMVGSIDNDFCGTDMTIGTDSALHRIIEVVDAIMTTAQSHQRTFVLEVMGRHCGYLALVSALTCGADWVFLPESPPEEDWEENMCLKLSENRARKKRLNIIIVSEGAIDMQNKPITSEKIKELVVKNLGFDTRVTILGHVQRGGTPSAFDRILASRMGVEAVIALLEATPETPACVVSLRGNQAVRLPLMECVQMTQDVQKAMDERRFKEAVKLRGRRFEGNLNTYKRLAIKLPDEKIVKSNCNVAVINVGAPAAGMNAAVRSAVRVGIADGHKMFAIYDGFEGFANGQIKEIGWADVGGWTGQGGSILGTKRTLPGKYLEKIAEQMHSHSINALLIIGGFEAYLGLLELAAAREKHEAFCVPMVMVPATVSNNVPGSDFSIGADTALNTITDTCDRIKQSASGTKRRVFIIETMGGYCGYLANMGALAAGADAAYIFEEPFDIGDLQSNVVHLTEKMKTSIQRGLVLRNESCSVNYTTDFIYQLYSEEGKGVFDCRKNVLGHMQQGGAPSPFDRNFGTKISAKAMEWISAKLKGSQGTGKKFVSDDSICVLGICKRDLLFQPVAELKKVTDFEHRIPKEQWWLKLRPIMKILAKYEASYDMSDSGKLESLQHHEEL

B1: Sirt2 (enzyme, mouse, UniProt Q8VDQ8 2-389, looked up)
chain: AEPDPSDPLETQAGKVQEAQDSDSDTEGGATGGEAEMDFLRNLFTQTLGLGSQKERLLDELTLEGVTRYMQSERCRKVICLVGAGISTSAGIPDFRSPSTGLYANLEKYHLPYPEAIFEISYFKKHPEPFFALAKELYPGQFKPTICHYFIRLLKEKGLLLRCYTQNIDTLERVAGLEPQDLVEAHGTFYTSHCVNTSCRKEYTMGWMKEKIFSEATPRCEQCQSVVKPDIVFFGENLPSRFFSCMQSDFSKVDLLIIMGTSLQVQPFASLISKAPLATPRLLINKEKTGQTDPFLGMMMGLGGGMDFDSKKAYRDVAWLGDCDQGCLALADLLGWKKELEDLVRREHANIDAQSGSQAPNPSTTISPGKSPPPAKEAARTKEKEEQQ
notes: Endogenous protein immunoprecipitated from T cell lysates with anti-Sirt2 (Sigma #9441); also called Sirtuin 2
B2: aldolase A (ALDOA) (enzyme, mouse, UniProt P05064 2-364, looked up)
chain: PHPYPALTPEQKKELSDIAHRIVAPGKGILAADESTGSIAKRLQSIGTENTEENRRFYRQLLLTADDRVNPCIGGVILFHETLYQKADDGRPFPQVIKSKGGVVGIKVDKGVVPLAGTNGETTTQGLDGLSERCAQYKKDGADFAKWRCVLKIGEHTPSALAIMENANVLARYASICQQNGIVPIVEPEILPDGDHDLKRCQYVTEKVLAAVYKALSDHHVYLEGTLLKPNMVTPGHACTQKFSNEEIAMATVTALRRTVPPAVTGVTFLSGGQSEEEASINLNAINKCPLLKPWALTFSYGRALQASALKAWGGKKENLKAAQEEYIKRALANSLACQGKYTPSGQSGAAASESLFISNHAY
notes: also called Aldolase 1
B3: succinate-CoA ligase alpha subunit (SUCLG1) (enzyme)
chain: not shown
notes: also called succinyl-CoA ligase alpha subunit; Succinyl-CoA Ligase

How the values were obtained:
pyruvate kinase M (PKM) = biological target: T7, pyruvate kinase M (PKM) (mouse, UniProt P52480 1-531, limits assumed); experiment: reverse co-IP with antibody to the enzyme, anti-Sirt2 immunoblot, activated WT mouse CD3+ T cell extracts (FIG. 3C)
T7 construct: also called PKM1/2; pyruvate kinase isozymes M1/M2

[1] = biological target: succinate dehydrogenase subunit alpha (SDHA) (mouse, UniProt Q8K2B3 43-664); experiment: IP of Sirt2, LC-MS/MS, activated WT mouse CD3+ T cell extracts
[2] = biological target: T1, alanine, serine, cysteine-preferring …; experiment: as above
Hexokinase 1 (HK1) = biological target: T2, Hexokinase 1 (HK1); experiment: co-IP with anti-Sirt2, immunoblot, activated WT mouse CD3+ T cell extracts (FIG. 3B)
aconitase 2 (ACO2) = biological target: T3, aconitase 2 (ACO2); experiment: co-IP/immunoblot and reverse co-IP/immunoblot, activated WT mouse CD3+ T cell extracts
[3] = biological target: T4, oxoglutarate dehydrogenase (OGDH); experiment: as above
[4] = biological target: T5, phosphoglycerate kinase 1 (PGK1); experiment: as above
[5] = biological target: T6, phosphofructokinase P (PFKP); experiment: as above
Sirt2 = biological target: B1; experiment: as above

T7 sequence (P52480 whole entry): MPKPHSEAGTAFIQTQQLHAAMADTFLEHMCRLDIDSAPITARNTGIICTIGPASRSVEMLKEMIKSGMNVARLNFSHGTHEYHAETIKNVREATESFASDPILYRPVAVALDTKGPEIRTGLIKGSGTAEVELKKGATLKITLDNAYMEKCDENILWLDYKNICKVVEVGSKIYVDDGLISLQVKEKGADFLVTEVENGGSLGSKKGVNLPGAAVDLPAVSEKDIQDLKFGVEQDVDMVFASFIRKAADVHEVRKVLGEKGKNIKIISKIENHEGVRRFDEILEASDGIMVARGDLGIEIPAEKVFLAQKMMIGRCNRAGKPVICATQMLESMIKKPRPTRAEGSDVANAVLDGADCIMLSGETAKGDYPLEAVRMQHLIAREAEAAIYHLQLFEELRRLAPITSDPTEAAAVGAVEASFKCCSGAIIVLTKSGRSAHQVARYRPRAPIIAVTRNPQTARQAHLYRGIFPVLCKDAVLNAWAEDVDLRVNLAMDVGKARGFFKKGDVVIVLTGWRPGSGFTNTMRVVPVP
Chain of succinate dehydrogenase subunit alpha (SDHA) (Q8K2B3 43-664 limits assumed): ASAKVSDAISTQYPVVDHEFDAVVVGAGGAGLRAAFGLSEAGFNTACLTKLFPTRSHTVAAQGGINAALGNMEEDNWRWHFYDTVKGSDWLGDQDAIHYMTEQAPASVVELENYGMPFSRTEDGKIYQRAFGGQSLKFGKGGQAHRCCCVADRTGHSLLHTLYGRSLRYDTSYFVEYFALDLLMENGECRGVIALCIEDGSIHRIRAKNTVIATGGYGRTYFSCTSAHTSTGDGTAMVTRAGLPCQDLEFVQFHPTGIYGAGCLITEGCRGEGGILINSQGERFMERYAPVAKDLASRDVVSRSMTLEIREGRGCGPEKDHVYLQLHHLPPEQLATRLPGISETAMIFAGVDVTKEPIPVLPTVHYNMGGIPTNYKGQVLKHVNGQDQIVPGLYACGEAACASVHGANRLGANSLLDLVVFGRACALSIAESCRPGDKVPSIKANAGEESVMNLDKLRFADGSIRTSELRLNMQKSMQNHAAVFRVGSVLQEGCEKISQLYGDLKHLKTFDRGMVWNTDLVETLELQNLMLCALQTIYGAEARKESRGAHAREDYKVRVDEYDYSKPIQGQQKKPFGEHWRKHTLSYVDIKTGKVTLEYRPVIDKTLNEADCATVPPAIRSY

Row | binding result (pyruvate kinase M (PKM)) | binding result [1] | binding result [2] | binding result (Hexokinase 1 (HK1)) | binding result (aconitase 2 (ACO2)) | binding result [3] | binding result [4] | binding result [5] | binding result (Sirt2) | Binder
1 | binds | binds | binds | binds | binds | binds | binds | binds |  | B1
2 |  |  |  |  |  |  |  |  | binds | B2
3 |  |  |  |  |  |  |  |  | binds | B3
